The values that follow come from patent US20090214574A1 (AFFIMED, published 2009).

One experiment addresses T1, NKp46-Fc (UniProt O76036 22-258, limits assumed).
T1 construct: Negative control protein; also called NKp46-Fc control protein; not shown: Fc part, not described
As to the kind of experiment: Western blot on NKp46-Fc. On the procedure:
For further characterization all of the anti-CD16A scFv were tested for binding in Western Blot on recombinant CD16A-Fc and NKp46-Fc.
The proteins were transferred on a nitrocellulose membrane by electroblotting. After staining with Ponceau S, the membrane was cut into strips of 5 mm width. Each nitrocellulose strip was individually incubated with scFv (4 μg/ml) in PBS, 0.1% tween, 2% skimmed milk. Detection was carried out with the anti-Penta His HRP-conjugate (1 μg/mL) using diaminobenzidine (DAB) as a peroxidase substrate. […] As an additional positive control, a goat anti-human IgG HRP-conjugate (0.16 μg/mL) was used for detection of the Fc portion of the fusion proteins.
Background: In western blotting, separated proteins are transferred to a membrane and probed.

In experiment [1] the target is T2, human CD16A-Fc^48R/158V fusion protein (human, UniProt P08637 17-208, limits assumed).
T2 construct: Secreted soluble fusion made in HEK-293 cells; also called CD16-Fc; CD16A Fc-fusion protein; not shown: Fc portion of human IgG1
As to the kind of experiment: SPR, kinetic and steady state analysis. As for the experimental part:
(§1) The affinity constants (KD values) of the scFv were determined by SPR using the BIAcore 2000 biosensor system (Amersham-Pharmacia). The CD16A-Fc fusion protein and BSA used as a negative control were immobilized on the carboxymethyldextran-coated sensor chip CM5 using conventional NHS/EDC chemistry for the amine coupling procedure (BIAcore). Purified scFvs were diluted in HBS-EP buffer (BIAcore, Uppsala, Sweden). Binding data was generated by passing varying concentrations of the scFv antibodies (100 nM, 200 nM, 400 nM, 800 nM and 1600 nM) over the immobilized antigen. […] All SPR measurements were performed at a constant flow rate of 20 μL/min in HBS-EP buffer at 25° C. Each injected sample (100 μl) was in contact with antigen for 5 minutes. The dissociation was followed for 30 minutes. After each cycle, the surface of the sensor chip was flushed with HBS-EP buffer. Signals from the control channel coated with BSA were automatically subtracted. Kinetic constants were calculated according to the 1/1 Langmuir binding model using the BIAevaluation version 3.0 software (BIAcore).

The target in experiment [2] is T2, human CD16A-Fc^48R/158V fusion protein. Description: SPR, steady state analysis (column Keq). As for the experimental part:
as §1
On the technique in general: Surface plasmon resonance follows binding to a sensor surface in real time, without labels.

Experiment [3] has the same target. Description: SPR, BIAcore 2000, CD16A-Fc immobilized on CM5, koff/kon. On the procedure:
as §1

Experiment [4] has the same target. Description: SPR, BIAcore 2000, CD16A-Fc immobilized on CM5, 1:1 Langmuir. On the procedure: as §1
The target of experiment [5] is T3, commercially available recombinant CD16B (Allele NA-2; BSA free; RD Systems) (UniProt O75015 17-200, limits assumed).
T3 construct: also called recombinant CD16B-Fc
As to the kind of experiment: ELISA on recombinant CD16B coated at 80 nM; scFv detected with anti-c-Myc-HRP (10 µg/ml). As for the experimental part: FIG. 3: ELISA on recombinant CD16A-Fc and CD16B. Recombinant CD16A-Fc and CD16B proteins were coated at 80 nM in 0.1 M NaHCO₃, pH 8.8. Wells were blocked with PBS, 2% skimmed milk. The binding of the scFv to the recombinant proteins and to gp34-Fc (negative control) was detected using an anti-c-Myc-HRP conjugate (10 μg/ml). […] Coated recombinant CD16B was directly detected by staining with an anti-His-HRP (1 μg/mL) and coating of the Fc-Fusion proteins was tested by an anti-human IgG-HRP conjugate (0.5 μg/mL). As HRP-substrate, 50 μL of TMB were used. After termination of the reaction with 50 μL 0.5 M H₂SO₄, absorbance was measured at 450 nm.
In order to generate further supporting data concerning the CD16A specificity of the scFvs, an ELISA was performed using the CD16A-Fc fusion protein (Example 1) and commercially available recombinant CD16B-Fc (Allele NA-2; BSA free; RD Systems). A gp34-Fc fusion protein was used as a negative control. The recombinant proteins were coated overnight at a concentration of 80 nM in 100 mM NaHCO₃ at pH 8.8.
Detection of scFv bound to the recombinant proteins was carried out by using an anti-c-myc-HRP conjugate (10 μg/ml). […] Binding to the recombinant CD16B was tested by directly staining with anti-His-HRP (1 μg/mL) and binding to the Fc-Fusion proteins was tested by an anti-human IgG-HRP conjugate (0.15 μg/mL).

The target of experiment [6] is T4, native CD16B on human polymorphonuclear cells (neutrophilic granulocytes) (human, UniProt O75015 17-200).
T4 construct: whole, on cells; also called PMN; CD16B-positive granulocytes
As to the kind of experiment: flow cytometry on freshly isolated PMN; scFv, anti-(His)6 MAb, FITC goat anti-mouse IgG; MFI minus secondary reagents alone. On the procedure:
Polymorphonuclear cells (PMN) and natural killer (NK) cells were isolated from peripheral blood from a healthy donor and used for flow cytometric staining and analysis. […] All scFv were used at a concentration of 50 μg/mL and were detected with 10 μg/mL anti-(His)₆ followed by 15 μg/mL FITC-conjugated goat anti-mouse IgG. The mean fluorescence intensities obtained from flow cytometric analysis were corrected by subtracting the fluorescence values from cell stainings with the secondary reagents alone and were plotted in the diagram.
Enrichment of NK cells was performed by negative selection as described above.

Experiment [7] addresses T5, human CD16B (NA-2 allele) on stably transfected HEK-293 cells (293/CD16B) (human, UniProt O75015 17-200).
T5 construct: whole, on cells
Description: flow cytometry on 293/CD16B cells; scFv, anti-hexa His MAb 13/45/31-2, FITC goat anti-mouse IgG; MFI minus secondary reagents alone. As for the experimental part: (§2) The mean fluorescence intensities obtained from flow cytometric analysis were corrected by subtracting the fluorescence values from cell stainings with the secondary reagents alone, and plotted in the diagram.
(§3) For flow cytometric analysis, the following cell lines were used: BW and BW/CD16A transfectants were cultured as described previously. […] The transient transfections were performed using the calcium phosphate method as described in Example 1 and were used for flow cytometric staining and analysis two days after transient transfection. Flow cytometric staining and analysis was performed as essentially described before.
On the technique in general: Flow cytometry measures light scatter and fluorescence of single cells or particles in a stream.

The target of experiment [8] is T6, NKp46 extracellular domain fused to zeta chain, on transiently transfected HEK-293 cells (293/NKp46) (human, UniProt O76036 22-258; P20963 31-164).
T6 construct: extracellular domain;domain: transmembrane and cytoplasmic domain; On the cell surface; also called NKp46-transfectants; pcDNA3-NKp46-zeta
Description: flow cytometry on 293/NKp46 cells; scFv, anti-hexa His MAb 13/45/31-2, FITC goat anti-mouse IgG; MFI minus secondary reagents alone. As for the experimental part: as §2, §3

T6 sequence (O76036 other isoform, or with tags, fused parts or gaps limits assumed): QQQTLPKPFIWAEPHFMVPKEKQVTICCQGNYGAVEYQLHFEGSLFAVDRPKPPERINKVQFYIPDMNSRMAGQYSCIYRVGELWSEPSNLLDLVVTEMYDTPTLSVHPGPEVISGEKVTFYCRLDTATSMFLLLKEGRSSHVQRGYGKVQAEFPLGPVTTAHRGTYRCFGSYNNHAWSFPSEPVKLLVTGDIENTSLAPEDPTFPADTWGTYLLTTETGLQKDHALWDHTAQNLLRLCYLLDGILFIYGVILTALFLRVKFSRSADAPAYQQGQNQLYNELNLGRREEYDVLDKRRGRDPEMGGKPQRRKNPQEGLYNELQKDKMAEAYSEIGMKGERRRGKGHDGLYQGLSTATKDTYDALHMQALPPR
T2 sequence (P08637 17-208 L66R/F176V limits assumed): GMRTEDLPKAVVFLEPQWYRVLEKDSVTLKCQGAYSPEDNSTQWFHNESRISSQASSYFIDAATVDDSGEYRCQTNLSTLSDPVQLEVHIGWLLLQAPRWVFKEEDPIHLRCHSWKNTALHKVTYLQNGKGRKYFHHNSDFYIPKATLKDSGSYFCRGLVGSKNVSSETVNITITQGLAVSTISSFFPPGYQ
T4 sequence (O75015 17-200): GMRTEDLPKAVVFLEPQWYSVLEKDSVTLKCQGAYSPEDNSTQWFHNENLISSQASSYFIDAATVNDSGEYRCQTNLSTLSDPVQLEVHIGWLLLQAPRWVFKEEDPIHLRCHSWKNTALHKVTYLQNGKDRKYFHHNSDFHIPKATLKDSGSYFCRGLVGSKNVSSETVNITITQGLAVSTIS
T1 sequence (O76036 22-258 limits assumed): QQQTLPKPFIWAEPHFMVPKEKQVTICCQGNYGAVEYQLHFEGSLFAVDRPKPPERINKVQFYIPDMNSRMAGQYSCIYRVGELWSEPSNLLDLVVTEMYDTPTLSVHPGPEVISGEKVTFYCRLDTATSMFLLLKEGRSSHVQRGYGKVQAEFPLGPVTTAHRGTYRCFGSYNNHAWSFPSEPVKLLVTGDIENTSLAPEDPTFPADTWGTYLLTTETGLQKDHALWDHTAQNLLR
T3 sequence (O75015 17-200 N65S limits assumed): as the sequence (O75015 17-200) above, with N49S counted along it
T5 sequence (O75015 17-200 N65S): as the sequence (O75015 17-200) above, with N49S counted along it

B1: affinity matured anti-CD16A scFv 3-LB6 (scFv)
scFv: EVQLVQSGAEVKKPGESLKVSCKASGYTFTSYYMHWVRQAPGQGLEWMGIINPSGGSTSYAQKFQGRVTMTRDTSTSTVYMELSSLRSEDTAVYYCARGSAYYYDFADYWGQGTLVTVSSGSASAPTLKLEEGEFSEARVQAVLTQPPSVSVAPGQTARIPCEGNNIGSKNVHWYRQKPGQVPVLVMYDDSDRPSGIPERFSGSNSGNTATLTISGTQAMDEADYYCQVWDNYSVLFGGGTKLTVLGQPKAAPSVTLFPPSAAAGSEQKLISEEDLNSHHHHHH
notes: IMAC-purified from pSKK2
On to B1, for which the binding result in the experiment with NKp46-Fc was “no binding (tested: 4 µg/ml)”; in experiment [5], “no binding (tested: not given)”; in [6] it was “no binding (tested: 50 µg/mL)”; in experiment [7] it was “no binding (tested: 50 µg/mL)”; in experiment [8], “no binding (tested: 50 µg/mL)”. Further, in [1], the “fold improvement of affinity over parental clone 50NI” value is above 20 fold. Besides, the dissociation constant Kd in experiment [2] amounted to 106 nM; in [3], 119 nM. In experiment [4], this molecule had a koff of 0.00652 s⁻¹. This molecule came in with an on-rate (kon) in experiment [4] of 54800 M⁻¹ s⁻¹.

B2: affinity matured anti-CD16A scFv 3-LB3 (scFv)
scFv: EVQLVQSGAEVKKPGESLKVSCKASGYTFTSYYMHWVRQAPGQGLEWMGIINPSGGSTSYAQKFQGRVTMTRDTSTSTVYMELSSLRSEDTAVYYCARGSAYYYDFADYWGQGTLVTVSSGSASAPTLKLEEGEFSEARVSYELTQPLSESVAQGQTARITCGGNNIESRNVHWYQQKPGQAPVLVIYRDNNRPSGIPERFSGSNSGNMATLTISRAQAGDAADYYCQVWDNYTVLFGGGTKLTVLGQPKAAPSVTLFPPSAAAGSEQKLISEEDLNSHHHHHH
notes: IMAC-purified from pSKK2
With B2, the binding result was “no binding (tested: 4 µg/ml)” in the experiment with NKp46-Fc; “no binding (tested: not given)” in experiment [5]; “no binding (tested: 50 µg/mL)” in experiment [6]; “no binding (tested: 50 µg/mL)” in experiment [7]; “no binding (tested: 50 µg/mL)” in experiment [8]. This molecule also displayed a Kd in experiment [3] of 138 nM. In experiment [4], this molecule had a koff of 0.00297 s⁻¹. In experiment [4], this molecule returned a kon of 21600 M⁻¹ s⁻¹.

B3: affinity matured anti-CD16A scFv 3-LB5 (scFv)
scFv: EVQLVQSGAEVKKPGESLKVSCKASGYTFTSYYMHWVRQAPGQGLEWMGIINPSGGSTSYAQKFQGRVTMTRDTSTSTVYMELSSLRSEDTAVYYCARGSAYYYDFADYWGQGTLVTVSSGSASAPTLKLEEGEFSEARVSYELTQPPSVAVAPGKTARITCGGNNIGSKNVHWYQQKPGQAPVLVIYRDSNRPSGIPERFSGSNSGNTATLTISRAQAGDEADFYCQVWDNYIVLFGGGTKLTVLGQPKAAPSVTLFPPSAAAGSEQKLISEEDLNSHHHHHH
notes: IMAC-purified from pSKK2; oligomeric state not analysed
Regarding B3, the binding result with NKp46-Fc is given as “no binding (tested: 4 µg/ml)”; in experiment [5] it was “no binding (tested: not given)”; in [6] it was “no binding (tested: 50 µg/mL)”; in [7] it was “no binding (tested: 50 µg/mL)”; in [8], “no binding (tested: 50 µg/mL)”. In experiment [3], the dissociation constant Kd turned out to be 40.5 nM. For the same molecule, the dissociation rate constant (koff) in [4] turned out to be 0.00297 s⁻¹. Besides, in experiment [4], the kon worked out at 73300 M⁻¹ s⁻¹.

B4: affinity matured anti-CD16A scFv 4-LS14 (scFv)
scFv: EVQLVQSGAEVKKPGESLKVSCKASGYTFTSYYMHWVRQAPGQGLEWMGIINPSGGSTSYAQKFQGRVTMTRDTSTSTVYMELSSLRSEDTAVYYCARGSAYYYDFADYWGQGTLVTVSSGSASAPTLKLEEGEFSEARVSYELTQPPSVSVTPGQTATITCGANDIGKRNVHWYQQRPGQSPVLVIYQDNKRPSGIPERFSGSNSGNTATLTISGTQAMDEADYYCQVWDNYSVLFGGGTKLTVLGQPKAAPSVTLFPPSAAAGSEQKLISEEDLNSHHHHHH
notes: IMAC-purified from pSKK2
Turning to B4, the binding result is given as “no binding (tested: 4 µg/ml)” with NKp46-Fc; “no binding (tested: not given)” in experiment [5]; “no binding (tested: 50 µg/mL)” in experiment [6]; “no binding (tested: 50 µg/mL)” in experiment [7]; “no binding (tested: 50 µg/mL)” in experiment [8]. In experiment [3], this molecule displayed an equilibrium dissociation constant (Kd) of 109 nM. Further, the off-rate constant (koff) in [4] was 0.00557 s⁻¹. This molecule gave an association rate constant (kon) in experiment [4] of 50900 M⁻¹ s⁻¹.

B5: affinity matured anti-CD16A scFv 3-LS49 (scFv)
scFv: EVQLVQSGAEVKKPGESLKVSCKASGYTFTSYYMHWVRQAPGQGLEWMGIINPSGGSTSYAQKFQGRVTMTRDTSTSTVYMELSSLRSEDTAVYYCARGSAYYYDFADYWGQGTLVTVSSGSASAPTLKLEEGEFSEARVQPVLTQPLSVSVAPGQTARITCGGNNIGSKNVHWYQQKPGQAPVLVIYRDSSRPSGIPERLSGSNSGDTATLTISRAQAGDEADYYCQVWDDYIVVFGGGTKLTVLGQPKAAPPVTLFPPSAAAGSEQKLISEEDLNSHHHHHH
notes: IMAC-purified from pSKK2
With B5, the binding result is recorded as “no binding (tested: 4 µg/ml)” with NKp46-Fc; “no binding (tested: not given)” in [5]; “no binding (tested: 50 µg/mL)” in [6]; “no binding (tested: 50 µg/mL)” in experiment [7]; “no binding (tested: 50 µg/mL)” in [8]. For the same molecule, the equilibrium dissociation constant (Kd) in experiment [3] amounted to 137 nM. In experiment [4], this molecule had an off-rate constant (koff) of 0.00401 s⁻¹. This molecule had an on-rate (kon) in experiment [4] of 29300 M⁻¹ s⁻¹.

The term Kd denotes the constant that tells how readily two partners part at equilibrium. Lower therefore signals tighter binding. Broadly, the koff is a measure of how fast the partners let go of each other. Lower therefore signals slow dissociation. As usually defined, the kon is a measure of how fast the partners come together. Read a high kon as faster complex formation.
